# Source: US20180186877A1, “METHOD FOR SUPPRESSING BLOOD COAGULATION REACTION FOR WHICH LOX-1 IS RESPONSIBLE” (NATIONAL CEREBRAL AND CARDIOVASCULAR CENTER, priority 2013, published 2018)
# Biological target: LOX-1 (immobilised on the ELISA plate in Examples 3 to 6; recombinant LOX-1 protein immobilised in the test tube in Example 8) (UniProt P78380)
# Experiment: ELISA, LOX-1 immobilised at 5 ug/mL, recombinant A2 domain 0-10 ug/mL, anti-V5 detection
# Chain of Recombinant A2 domain of the H chain of FV (NM000130.4, aa 317-656, V5-6xHis; Igk secretion signal) (P12259 345-684 limits assumed, form in doubt): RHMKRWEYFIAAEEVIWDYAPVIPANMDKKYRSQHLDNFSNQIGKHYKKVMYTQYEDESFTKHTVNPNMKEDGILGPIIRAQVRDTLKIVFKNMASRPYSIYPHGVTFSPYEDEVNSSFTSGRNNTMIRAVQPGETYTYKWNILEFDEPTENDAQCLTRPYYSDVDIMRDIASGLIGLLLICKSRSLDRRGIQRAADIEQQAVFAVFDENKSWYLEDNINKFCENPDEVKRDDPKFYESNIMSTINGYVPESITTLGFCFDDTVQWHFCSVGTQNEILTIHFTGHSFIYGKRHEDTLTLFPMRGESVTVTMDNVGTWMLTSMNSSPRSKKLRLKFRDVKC
substance,measurement,value
"Recombinant A2 domain of the H chain of FV (NM000130.4, aa 317-656, V5-6xHis; Igk secretion signal) (from UniProt P12259 345-684)",EC50 (read off the curve),1 mg/L
